Laboratory results taken from patent US8629107B2, “Genes and proteins associated with angiogenesis and uses thereof” (National Jewish Health, priority 2005, dated 2014).

Biological target: T1, Notch1 (Mus musculus, UniProt Q01705)
T1 construct: expressed in transfected cells; host or cells: human kidney 293T cells, transient transfection (LT-1 liposomes)
Test: Notch1 processing assay in human kidney 293T cells
Format: cell-based
Conditions: 293T cells co-transfected with Notch1, vs cells solely expressing Notch1; anti-Myc immunoblot
Method: To monitor the effects of MAGP-2 on the processing and S3 cleavage of Notch1, human kidney 293T cells were transiently transfected in 6-well plates with LT-1 liposomes containing 0.5 μg/well of Notch1 (pCS2+mN1FL6MT), 0.5 μg/well Jagged-1 (pCS2+Jag1-6MT), or 1.5 μg/well of MAGP-2 (pcDNA3.1-MAGP-2/Myc-His) in all combinations. Forty-eight h post-transfection, the cells were washed with ice-cold PBS, lysed immediately in Buffer H/1% Triton X-100 [500 μl/well; (Schiemann et al, 2002)], and incubated on ice for 30 min. Afterward, insoluble material was removed by microcentrifugation and 100 μl of the resulting clarified extract was fractionated through 6% SDS-PAGE gels. The fractionated proteins were transferred electrophoretically to nitrocellulose and probed with anti-Myc 9E10 monoclonal antibodies (Covance, Princeton, N.J.) to visual Notch1 cleavage species.
Activation of Notch1 signaling involves three proteolytic processing events, termed S1, S2, and S3, that produce three distinct Notch1 fragments, termed TMIC, NEXT, and NICD, respectively (Mumm et al, 2000). […] The inventors tested this possibility by transiently transfecting human 293T cells with cDNAs encoding Myc-tagged versions of Notch1, Jagged-1, and MAGP-2 in all combinations, and subsequently monitored changes in NICD production and accumulation by immunoblot analyses using anti-Myc monoclonal antibodies. […]

T1 sequence (Q01705 19-2531): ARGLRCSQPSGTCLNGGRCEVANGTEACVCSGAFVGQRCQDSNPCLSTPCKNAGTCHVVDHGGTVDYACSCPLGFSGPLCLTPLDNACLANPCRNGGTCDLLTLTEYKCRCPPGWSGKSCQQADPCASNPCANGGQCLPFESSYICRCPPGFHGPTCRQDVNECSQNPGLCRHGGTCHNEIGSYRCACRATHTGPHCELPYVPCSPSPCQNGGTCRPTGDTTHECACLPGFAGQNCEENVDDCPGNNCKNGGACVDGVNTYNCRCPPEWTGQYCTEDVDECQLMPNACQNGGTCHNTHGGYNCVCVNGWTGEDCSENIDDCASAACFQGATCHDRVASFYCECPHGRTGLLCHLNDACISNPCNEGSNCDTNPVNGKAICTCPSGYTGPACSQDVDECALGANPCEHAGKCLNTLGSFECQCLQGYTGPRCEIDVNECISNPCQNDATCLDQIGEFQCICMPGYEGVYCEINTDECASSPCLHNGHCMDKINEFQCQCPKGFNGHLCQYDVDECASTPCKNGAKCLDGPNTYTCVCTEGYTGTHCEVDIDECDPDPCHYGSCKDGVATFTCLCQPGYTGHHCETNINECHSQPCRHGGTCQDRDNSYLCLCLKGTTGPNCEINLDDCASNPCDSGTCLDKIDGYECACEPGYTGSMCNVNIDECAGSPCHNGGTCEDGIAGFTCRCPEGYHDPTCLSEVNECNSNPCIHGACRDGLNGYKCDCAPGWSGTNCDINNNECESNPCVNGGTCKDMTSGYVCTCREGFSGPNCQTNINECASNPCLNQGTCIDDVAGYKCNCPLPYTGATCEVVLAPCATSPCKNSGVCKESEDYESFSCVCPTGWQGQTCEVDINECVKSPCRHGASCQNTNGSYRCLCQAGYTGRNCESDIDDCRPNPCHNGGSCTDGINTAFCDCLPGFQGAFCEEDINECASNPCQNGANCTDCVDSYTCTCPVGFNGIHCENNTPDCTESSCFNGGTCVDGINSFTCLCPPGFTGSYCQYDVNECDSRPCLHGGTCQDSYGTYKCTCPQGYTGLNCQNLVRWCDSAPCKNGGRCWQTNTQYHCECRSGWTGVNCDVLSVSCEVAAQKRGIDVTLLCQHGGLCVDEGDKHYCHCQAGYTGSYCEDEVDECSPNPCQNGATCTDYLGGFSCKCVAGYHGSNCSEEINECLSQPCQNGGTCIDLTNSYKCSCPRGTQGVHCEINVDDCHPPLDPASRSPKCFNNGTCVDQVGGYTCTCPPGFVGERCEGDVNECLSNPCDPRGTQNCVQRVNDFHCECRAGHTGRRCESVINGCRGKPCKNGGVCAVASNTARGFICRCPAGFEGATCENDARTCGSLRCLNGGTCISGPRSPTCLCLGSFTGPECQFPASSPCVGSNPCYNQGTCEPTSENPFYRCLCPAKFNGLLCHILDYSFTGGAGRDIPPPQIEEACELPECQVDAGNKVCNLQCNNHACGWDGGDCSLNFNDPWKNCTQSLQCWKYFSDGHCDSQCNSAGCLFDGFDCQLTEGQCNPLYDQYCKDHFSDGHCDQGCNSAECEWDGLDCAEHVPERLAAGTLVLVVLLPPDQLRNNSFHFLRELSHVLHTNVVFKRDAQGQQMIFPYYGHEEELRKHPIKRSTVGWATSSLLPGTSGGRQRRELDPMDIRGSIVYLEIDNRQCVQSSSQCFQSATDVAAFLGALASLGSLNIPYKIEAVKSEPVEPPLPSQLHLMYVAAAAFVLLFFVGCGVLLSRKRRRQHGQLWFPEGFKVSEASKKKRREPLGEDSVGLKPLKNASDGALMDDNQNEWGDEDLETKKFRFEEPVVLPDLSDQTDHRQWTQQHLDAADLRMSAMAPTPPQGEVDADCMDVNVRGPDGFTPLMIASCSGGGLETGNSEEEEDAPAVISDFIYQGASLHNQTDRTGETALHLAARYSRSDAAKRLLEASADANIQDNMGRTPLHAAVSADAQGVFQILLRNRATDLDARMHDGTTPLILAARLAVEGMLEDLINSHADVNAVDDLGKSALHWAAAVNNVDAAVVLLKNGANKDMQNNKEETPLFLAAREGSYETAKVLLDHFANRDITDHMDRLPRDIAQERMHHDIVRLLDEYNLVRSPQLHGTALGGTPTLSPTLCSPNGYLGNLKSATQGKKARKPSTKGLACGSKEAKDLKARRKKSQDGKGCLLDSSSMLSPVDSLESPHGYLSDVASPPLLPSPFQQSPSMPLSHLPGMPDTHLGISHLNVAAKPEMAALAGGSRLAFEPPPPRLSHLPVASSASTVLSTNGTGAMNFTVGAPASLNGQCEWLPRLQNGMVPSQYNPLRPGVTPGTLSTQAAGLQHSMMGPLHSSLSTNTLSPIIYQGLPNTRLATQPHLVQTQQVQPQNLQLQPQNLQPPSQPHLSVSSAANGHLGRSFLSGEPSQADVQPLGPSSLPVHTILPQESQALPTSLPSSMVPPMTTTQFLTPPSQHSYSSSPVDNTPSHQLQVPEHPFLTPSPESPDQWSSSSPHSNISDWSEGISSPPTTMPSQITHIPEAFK

B1: Jagged-1: Notch1 ligand; Myc-tagged murine Jagged-1 cDNA transiently transfected (protein)
chain: QFELEILSMQNVNGELQNGNCCGGVRNPGDRKCTRDECDTYFKVCLKEYQSRVTAGGPCSFGSGSTPVIGGNTFNLKASRGNDRNRIVLPFSFAWPRSYTLLVEAWDSSNDTIQPDSIIEKASHSGMINPSRQWQTLKQNTGIAHFEYQIRVTCDDHYYGFGCNKFCRPRDDFFGHYACDQNGNKTCMEGWMGPDCNKAICRQGCSPKHGSCKLPGDCRCQYGWQGLYCDKCIPHPGCVHGTCNEPWQCLCETNWGGQLCDKDLNYCGTHQPCLNRGTCSNTGPDKYQCSCPEGYSGPNCEIAEHACLSDPCHNRGSCKETSSGFECECSPGWTGPTCSTNIDDCSPNNCSHGGTCQDLVNGFKCVCPPQWTGKTCQLDANECEAKPCVNARSCKNLIASYYCDCLPGWMGQNCDININDCLGQCQNDASCRDLVNGYRCICPPGYAGDHCERDIDECASNPCLNGGHCQNEINRFQCLCPTGFSGNLCQLDIDYCEPNPCQNGAQCYNRASDYFCKCPEDYEGKNCSHLKDHCRTTTCEVIDSCTVAMASNDTPEGVRYISSNVCGPHGKCKSQSGGKFTCDCNKGFTGTYCHENINDCESNPCKNGGTCIDGVNSYKCICSDGWEGAHCENNINDCSQNPCHYGGTCRDLVNDFYCDCKNGWKGKTCHSRDSQCDEATCNNGGTCYDEVDTFKCMCPGGWEGTTCNIARNSSCLPNPCHNGGTCVVNGDSFTCVCKEGWEGPICTQNTNDCSPHPCYNSGTCVDGDNWYRCECAPGFAGPDCRININECQSSPCAFGATCVDEINGYQCICPPGHSGAKCHEVSGRSCITMGRVILDGAKWDDDCNTCQCLNGRVACSKVWCGPRPCRLHKSHNECPSGQSCIPVLDDQCFVRPCTGVGECRSSSLQPVKTKCTSDSYYQDNCANITFTFNKEMMSPGLTTEHICSELRNLNILKNVSAEYSIYIACEPSLSANNEIHVAISAEDIRDDGNPVKEITDKIIDLVSKRDGNSSLIAAVAEVRVQRRPLKNRTDFLVPLLSSVLTVAWVCCLVTAFYWCVRKRRKPSSHTHSAPEDNTTNNVREQLNQIKNPIEKHGANTVPIKDYENKNSKMSKIRTHNSEVEEDDMDKHQQKVRFAKQPVYTLVDREEKAPSGTPTKHPNWTNKQDNRDLESAQSLNRMEYIV
modifications: left off: small tags and cut ends
notes: Notch1 ligand; Myc-tagged murine Jagged-1 cDNA transiently transfected
  Notch1 processing and production of NICD: significantly enhanced
